Data: patent US20230094463A1 (TRUEBINDING, published 2023)
Where a chain is given by its changes, count along the chain named. In names and notes the source's numbering stands.

B1: 7D8.2D8 (antibody, V domains shown)
VH: EVQLVESGGGLVKPGGSLKLSCAASGFTFSSYAMSWVRQTPEKRLEWVATISDGGIYTYYPDNVKGRFTISRDNAKNNLFLQMSHLKSEDTAMYYCVRDGGYWGQGTTLTVSS
VL: DVLMTQTPLSLPVSLGDQASISCRSSQSIVHSNGNTYLEWYLQKPGQSPKLLIYKVSNRFSGVPDRFSGSGSGTDFTLKISRVEAEDLGVYYCFQGSHVPLTFGAGTKLELK
B2: 15F10.2D6 (antibody, V domains shown)
VH: B1 VH with T28A, I56V, P61T, N63H, K76E, N77D, F80Y
VL: B1 VL with S32N, A105G
B3: 13H12.2F8 (antibody, V domains shown)
VH: QIQLVQSGPELKKPGETVKISCKASGYTFTTYGMSWVKQAPGKGLKWMGWINTYSGVPTYADDFKGRFAFSLETSASTAYLQINNLKNEDTATYFCAVPYEYDGAYWGQGTLVTVSA
VL: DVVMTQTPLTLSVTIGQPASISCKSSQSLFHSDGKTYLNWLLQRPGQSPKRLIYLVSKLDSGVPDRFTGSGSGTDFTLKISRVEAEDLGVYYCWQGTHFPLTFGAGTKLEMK
B4: F847C.4B10 (antibody, V domains shown)
VH: EVQLVETGGGLVKPGGSLKLSCAASGFTFSSYAMSWVRQTPEKRLEWVASISSGGSTYYPDSVKGRFTISRDNARNILYLQMSSLRSEDTAMYYCTRFTTVVEMDYWGQGTSVTVSS
VL: QAVVTQESALTTSPGETVTLTCRSSTGAVTTSNYANWVQEKPDHLFTGLIGGTNNRAPGVPARFSGSLIGDKAALTITGAQTEDEAIYFCALWYSNHLVFGGGTKLTVLR
notes: anti-Gal3 antibody; also called 847.4B10
B5: F846C.1B2 (antibody, V domains shown)
VH: QIQLVQSGPELKKPGETVKISCKASGYTFTNYGMNWVKQAPGKGLKWMGWINTYTGEPSYADDFKGRFAFSLETSASTAYLQINNLKNEDMATYFCARWGGYAGDYYAMDFWGQGTSVTVSS
VL: NIWLTQSPSSLAVSAGEMVTMTCKSSQSVLYSSNQKNYLAWYQQKPGQSPKLLIYWASTRESGVPDRFTGSGSGTDFSLTISSVQAEDLAVYYCHQYLSSLTFGAGTKLELK
notes: also called 846.1B2
B6: F846C.1H12 (antibody, V domains shown)
VH: B5 VH with Y32F, M91I, F111Y
VL: NIMMTQSPSSLAVSAGQKVTMSCKSSQSVLYSSSQKNYLAWYQQKPGQSPKLLIYWASTRESGVPDRFSGSGSGTDFTLTISSVQPEDLAVYYCHQYLSSLTFGAGTKLELKR
notes: also called 846.1H12
B7: F846C.2H3 (antibody, V domains shown)
VH: B5 VH with A103D, F111Y
VL: B5 VL with W3M, L4M, M18K, T22S, S78T, A86P
notes: also called 846.2H3
B8: F846TC.16B5 (antibody, V domains shown)
VH: B5 VH with S59A, A103D, F111Y
VL: B6 VL with Q17E, S34N, S69T, P86A
notes: also called 846T.16B5
B9: F846C.1H5 (antibody, V domains shown)
VH: EVQLLESGGGLVKPGGSLKLSCAASGFTFSSYAMSWVRQTPEKRLEWVASISSGGDTYYPDSVKGRFTISRDNARNILYLQMSSLRSEDTAMYYCASYGNSLFDYWGQGTTLTVSS
VL: DVVMTQTPLSLPVSLGDQASISCRSSQSLVHNSGNTYLHWYLQRPGQSPNLLIYKVSNRFSGVPDRFSGSGSGTDFTLKISRVAAEDLGVYFCSQSTHVPPTFGGGTKLEIK
notes: anti-Gal3 antibody; also called 846.1H5

Legend:
[1] = target: T1, Human Galectin-3 protein (Acro Biosystems, GA3-H5129) (human, UniProt P17931 2-250); experiment: ELISA, blocking of INSR binding to coated Gal3
T1 construct: Bought protein; also called Gal3-ECD-His; Gal3-His; not shown: linker-spaced 6-histidine tag

[2] = target: T1, Human Galectin-3 protein (Acro …); experiment: SPR (Biacore T200), antibody captured, Galectin-3 as analyte
[3] = target: T2, Human GAL3 protein (TrueBinding, QCB200349 / QCB200352; R&D Systems, 8259-GA) (human, UniProt P17931 2-250); experiment: blocking ELISA (GAL3 coated; antibody + biotinylated ITGa3)
T2 construct: also called human galectin-3

[4] = target: T2, Human GAL3 protein (TrueBinding, …); experiment: blocking ELISA (GAL3 coated; antibody + biotinylated ITGaV)
[5] = target: T2, Human GAL3 protein (TrueBinding, …); experiment: blocking ELISA (GAL3 coated; antibody + biotinylated ITGb3)

T1 sequence (P17931 2-250): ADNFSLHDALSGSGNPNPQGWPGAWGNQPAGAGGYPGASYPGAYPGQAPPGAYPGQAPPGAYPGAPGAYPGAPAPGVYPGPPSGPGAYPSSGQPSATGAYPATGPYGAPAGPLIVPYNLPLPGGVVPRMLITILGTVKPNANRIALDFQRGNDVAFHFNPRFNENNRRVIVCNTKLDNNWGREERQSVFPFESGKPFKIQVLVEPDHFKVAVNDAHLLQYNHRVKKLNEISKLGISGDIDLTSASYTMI
T2 sequence (P17931 2-250 limits assumed): as the sequence (P17931 2-250) above

Binder | Gal3-INSR Blocking @ 3 µg/mL [1] [%] | Kd [2] [nM] | percent blockade of GAL3-ITGa3 interaction [3] [%] | percent blockade of GAL3-ITGaV interaction [4] [%] | percent blockade of GAL3-ITGb3 interaction [5] [%]
B1 | 75 | 2.49 |  |  | 
B2 | 82 | 2.06 |  |  | 
B3 | 97 | 6.07 |  |  | 
B4 |  |  | > 90 |  | 
B5 |  |  | > 90 | > 90 | > 90
B6 |  |  | > 90 |  | > 90
B7 |  |  | > 90 | > 90 | > 90
B8 |  |  | > 90 | > 90 | > 90
B9 |  |  | > 90 |  | 
